Substrate in series [1]: NCCc1ccc(O)cc1
Briefly: On-line DBH-Glut-P immobilized enzyme reactor (DBH-Glut-P IMER) HPLC system. It counts as biochemical, bovine. To be noted: other: DBH-IMER (DBH-Glut-P IMER), 0.3 ml/min, contact time 10 min, 37° C. The source says: DBH immobilized on the IAM or Glut-P stationary phase was packed into a 1 cm×10 mm guard (Regis Technologies). The guard was placed in a holder and the resulting column connected to a chromatographic system. THE DBH-IAM-IMER and the DBH-Glut-P-IMER was washed with sodium acetate buffer [0.1M, pH 5.5] and sodium acetate buffer [0.1M, pH 6.0], respectively. The eluent from both IMERs was collected in order to determine if any of the DBH was being washed off the columns. The Biorad assay was utilized to measure the amount of non-immobilized enzyme. When the columns were not in use they were washed with sodium acetate buffer at the respective pHs and stored at 4° C.
Pumps 2 and 3 on system 2 and 3 were stopped. […]
The enzymatic activity on the DBH-Glut-P was determined by quantification of the amount of product formed with a given substrate. […] The kinetic parameters were determined using standard Michaelis-Menten approach. […] The rates of reaction (Vmax) were calculated using […]mol/mg/min. Results are expressed as mean±standard error of the mean (SEM). […]

Substrate in series [2]: NCCc1ccc(O)cc1
Put plainly: DBH immobilized onto Glut-P stationary phase (DBH-Glut-P, DBH-Glut-P-SP), batch assay. It counts as biochemical, bovine. To be noted: other: DBH-Glut-P (DBH-Glut-P-SP); 37.0 °C. On the procedure:
The enzyme was assayed as follows: four different solutions were prepared A, B, C and D (final concentration). (A) 500 μL of enzyme solution (10 μg/ml); B: 275 μL sodium acetate buffer (10 mM, pH 5.5), 50 μL cupric sulphate (5 μM); C: 25 μL catalase (5 μg/ml), 50 μL ascorbic acid (10 mM), 50 μl sodium fumarate (10 mM); D: 50 μl substrate (5 mM). Solution B was added to solution A, the resulting solution was mixed for 1 min. Solution C was added and the resulting solution was mixed for an additional minute. The reaction was started with the addition of the substrate (D), after which the reaction solution was incubated for 5 min at 37° C. in a shaking bath. […]
The packing material was washed three times with sodium acetate buffer (0.1M, pH 6). […] The enzyme solution (8-10 μg in 1 ml sodium acetate buffer] was added to the packing material, the mixture was vortexed for 2 min and then placed on a shaker/rotator for 6 h at ambient temperature. At the end of 6 h, the suspension was centrifuged, the supernatant decanted and the packing material washed three additional times with the buffer. The amount of residual enzyme was determined utilizing the same procedure as that carried out for the enzyme immobilized onto IAM.

Among the data in US20040053355A1, “Modular approach to on-line synthesis, drug discovery and biochemical transformations using immobilized enzyme reactors” (priority 2000, published 2004) are Km and Vmax values, retold here.

B1: DBH-Glut-P IMER (immobilized dopamine beta-hydroxylase) (Bos taurus) (protein)
chain: MQVPSPSVREAASMYGTAVAVFLVILVAALQGSAPAESPFPFHIPLDPEGTLELSWNISYAQETIYFQLLVRELKAGVLFGMSDRGELENADLVVLWTDRDGAYFGDAWSDQKGQVHLDSQQDYQLLRAQRTPEGLYLLFKRPFGTCDPNDYLIEDGTVHLVYGFLEEPLRSLESINTSGLHTGLQRVQLLKPSIPKPALPADTRTMEIRAPDVLIPGQQTTYWCYVTELPDGFPRHHIVMYEPIVTEGNEALVHHMEVFQCAAEFETIPHFSGPCDSKMKPQRLNFCRHVLAAWALGAKAFYYPEEAGLAFGGPGSSRFLRLEVHYHNPLVITGRRDSSGIRLYYTAALRRFDAGIMELGLAYTPVMAIPPQETAFVLTGYCTDKCTQLALPASGIHIFASQLHTHLTGRKVVTVLARDGRETEIVNRDNHYSPHFQEIRMLKKVVSVQPGDVLITSCTYNTEDRRLATVGGFGILEEMCVNYVHYYPQTQLELCKSAVDPGFLHKYFRLVNRFNSEEVCTCPQASVPEQFASVPWNSFNREVLKALYGFAPISMHCNRSSAVRFQGEWNRQPLPEIVSRLEEPTPHCPASQAQSPAGPTVLNISGGKG
notes: purchased
B1: in series [1], the Michaelis constant (Km) (as a rule, the substrate concentration at which the rate is half of its maximum) was found to be 2760 µM and the maximal velocity (Vmax) (as a rule, the top rate of the reaction or transport when substrate is in excess) amounted to 0.079 µmol/mg/min.

B2: dopamine beta-hydroxylase immobilized onto Glut-P (DBH-Glut-P) (Bos taurus) (protein)
chain: MQVPSPSVREAASMYGTAVAVFLVILVAALQGSAPAESPFPFHIPLDPEGTLELSWNISYAQETIYFQLLVRELKAGVLFGMSDRGELENADLVVLWTDRDGAYFGDAWSDQKGQVHLDSQQDYQLLRAQRTPEGLYLLFKRPFGTCDPNDYLIEDGTVHLVYGFLEEPLRSLESINTSGLHTGLQRVQLLKPSIPKPALPADTRTMEIRAPDVLIPGQQTTYWCYVTELPDGFPRHHIVMYEPIVTEGNEALVHHMEVFQCAAEFETIPHFSGPCDSKMKPQRLNFCRHVLAAWALGAKAFYYPEEAGLAFGGPGSSRFLRLEVHYHNPLVITGRRDSSGIRLYYTAALRRFDAGIMELGLAYTPVMAIPPQETAFVLTGYCTDKCTQLALPASGIHIFASQLHTHLTGRKVVTVLARDGRETEIVNRDNHYSPHFQEIRMLKKVVSVQPGDVLITSCTYNTEDRRLATVGGFGILEEMCVNYVHYYPQTQLELCKSAVDPGFLHKYFRLVNRFNSEEVCTCPQASVPEQFASVPWNSFNREVLKALYGFAPISMHCNRSSAVRFQGEWNRQPLPEIVSRLEEPTPHCPASQAQSPAGPTVLNISGGKG
notes: purchased
For the protein B2, in series [2], the Km is 1040 µM and the maximal velocity (Vmax) worked out at 0.112 µmol/mg/min.
